Measured values from the DeepSol protein solubility set.

Experiment: soluble on expression in E. coli; label from the status in PepcDB or PDB records

**Q.** With “MSLRPRQLLLATDLGARCDRALDRAIQLSRAWHAALTVVHAVEQVELIDDEPSWRQPPDAALAIQAELEDELGEAGLSSIDARVLKGKPSEVVLKVAEEVEAELILTGVKRDGALEKALLGDTVTELARQSRVPVLVVKKRLRKPYGRIVVATDLSELSRAALARAVDLFGPDNLVVFHASFAHFASRMDDRVAYESELRSDAIQNCRDFIRDVAGEEAAATMEVMVEYGEPDLLLEKYVQDKQVDLVVVSTRGRSGLLGVLLGSVAMRILDSVACDVLIVRSEGHHHHHH” as the sequence, how does the “soluble on expression in E. coli” value read?
**A.** soluble

**Q.** With “MSLGLTTKPLSLKVNAALFDVDGTIIISQPAIAAFWRDFGKDKPYFDAEHVIQVSHGWRTFDAIAKFAPDFANEEYVNKLEAEIPVKYGEKSIEVPGAVKLCNALNALPKEKWAVATSGTRDMAQKWFEHLGIRRPKYFITANDVKQGKPHPEPYLKGRNGLGYPINEQDPSKSKVVVFEDAPAGIAAGKAAGCKIIGIATTFDLDFLKEKGCDIIVKNHESIRVGGYNAETDEVEFIFDDYLYAKDDLLKWEGHHHHHH” as the sequence, how does the “soluble on expression in E. coli” value read?
**A.** soluble

**Q.** Which “soluble on expression in E. coli” value does the source give for “MAEREFDMTIEEVTIKVAPGLDYKVFGFNGQVPGPLIHVQEGDDVIVNVTNNTSLPHTIHWHGVHQKGTWRSDGVPGVTQQPIEAGDSYTYKFKADRIGTLWYHCHVNVNEHVGVRGMWGPLIVDPKQPLPIEKRVTKDVIMMMSTWESAVADKYGEGGTPMNVADYFSVNAKSFPLTQPLRVKKGDVVKIRFFGAGGGIHAMHSHGHDMLVTHKDGLPLDSPYYADTVLVSPGERYDVIIEADNPGRFIFHDHVDTHVTAGGKHPGGPITVIEYDGVPVDDWYVWKDKDYDPNFFYSESLKQGYGMFDHDGFKGEFEQRQRRPGRKLAAALEHHHHHH” here?
**A.** soluble

**Q.** Which “soluble on expression in E. coli” value does the source give for “MSLVIRRLYQFCASHVVRNCSSLKCAQNIHGHNYEVEVFIETNRLDNANMALDFGLMQQEMQVFIESFDHAHHFWDKESLEFQRFIENHCVRYVKCSFNLSAESYALMFLYYLTKILQKSVFSNDEGELKVSSVRVHETKNGYAESFLKDEGHHHHHH” here?
**A.** soluble

**Q.** Which “soluble on expression in E. coli” value does the source give for “MTYTGSIRCEGDTWDLASSVGATATMVAAARAMATRAANPLINDQFAEPLVRAVGVDVLTRLASGELTASDIDDPERPNASMVRMAEHHAVRTKFFDEFFMDATRAGIRQVVILASGLDSRAYRLAWPAQTVVYEIDQPQVMEFKTRTLAELGATPTADRRVVTADLRADWPTALGAAGFDPTQPTAWSAEGLLRYLPPEAQDRLLDNVTALSVPDSRFATESIRNFKPHHEERMRERMTILANRWRAYGFDLDMNELVYFGDRNEPASYLSDNGWLLTEIKSQDLLTANGFQPFEDEEVPLPDFFYVSARLQRKHRQYPAHRKPAPSWRHTACPVNELSKSAAYTMTRSDAHQASTTAPPPPGLTG” here?
**A.** soluble

**Q.** Which “soluble on expression in E. coli” value does the source give for “LNNLEELKRDIIEQFKEKNALDEGIVVMASGGKDSSTAIALAKDLGLNIEYLIHFYHRWSWDVSKKMVEKLSKKFDIPVIFYNITDELLKRTKGAKGSSICRICKNIMKDKAVDISKEKGIRIIMTGDSALEKVSGAVMNYLRDVYGEVVYNKMELTPVPQKYSKGKDKEVLFFRPLIRLACEDVLKLMDYYNIEIERAHE” here?
**A.** not soluble

**Q.** With “MLRTQFEEELLNLHNQFYEMGMMVSSAVHKSVKAYINHDKKLAQEVIDRDIEINDMEVKLEKKSFEMIALQQPVTTDLRMIITVMKASSDLERMADHAVSIAKSTIRLKGETRIPEIEKEISDMSDYVKKMVDNVLIAYVKTDQKDARMIAQMDDRTNEYFDSIYKHAVEAMKANPETVISGTDYLHVAQYLERIGDYVTNICEWIVYLATGKITELNSNRDEQF” as the sequence, how does the “soluble on expression in E. coli” value read?
**A.** not soluble

**Q.** With “MSLQAELVIKNGLVILETGEVITDVAVQGGKIVAIGQDLSGERVIDATGLVVSPGMVDAHVHITDPGGGYRDEWEGYVTGTAACAKGGVTTFMEMPLNQIPATVDKTSLEIKYKAGENKLKVDVGSFGGVVPTNLADGIQELDEGGVSGYKCFLGTCGDRSIEGDFQNVDDYSLYEGMKQVAKTGKVLAIHAENAPITDKLGAVAYQNGETTLAAYVATRPVFTEVEAIQKAILFAKETGCRIHICHVACQEGVEEVLKAQAEGVDVTCETCTHYLYFTTDELDAIGPVVKCSPPIRDADQQAALWNHVQTGGIAFVTSDHSPCTPDLKDTTNAFEAWGGISGVQNNVDVLFDEAVQKRGLSLKQFADMIAANPADRYHLAQKGRISIGKDADFVLIKPNAPYILKAEDLEYRNKISPYIGREIGAQVIQTILRGETIYAQETGVTEAFNGVFIKNEGHHHHHH” as the sequence, how does the “soluble on expression in E. coli” value read?
**A.** soluble

**Q.** With “MGHHHHHHSHMLVDNLYRVVSNQKDAAVIRVHLEVNASHEIFKGHFPEVPVLPGVCMVQCIKELIEESLLVKTQIDKGDMIKFLSMLNPVESNSIQAEISIKEKTETRIVFQATLKNEDRFLLKYSGSLVVLN” as the sequence, how does the “soluble on expression in E. coli” value read?
**A.** not soluble

**Q.** For “MAIIPKNYARLESGYREKALKIYPWVCGRCSREFVYSNLRELTVHHIDHDHTNNPEDGSNWELLCLYCHDHEHSKYTEADQYGTTVIAGEDAQKDVGEAKYNPFADLKAMMNKKK”, which “soluble on expression in E. coli” value is on record?
**A.** not soluble

**Q.** Which “soluble on expression in E. coli” value does the source give for “MSTGDSFETRFEKMDNLLRDPKSEVNSDCLLDGLDALVYDLDFPALRKNKNIDNFLSRYKDTINKIRDLRMKAEDYEVVKVIGRGAFGEVQLVRHKSTRKVYAMKLLSKFEMIKRSDSAFFWEERDIMAFANSPWVVQLFYAFQDDRYLYMVMEYMPGGDLVNLMSNYDVPEKWARFYTAEVVLALDAIHSMGFIHRDVKPDNMLLDKSGHLKLADFGTCMKMNKEGMVRCDTAVGTPDYISPEVLKSQGGDGYYGRECDWWSVGVFLYEMLVGDTPFYADSLVGTYSKIMNHKNSLTFPDDNDISKEAKNLICAFLTDREVRLGRNGVEEIKRHLFFKNDQWAWETLRDTVAPVVPDLSSDIDTSNFDDLEEDKGEEETFPIPKAFVGNQLPFVGFTYYSNRRYL” here?
**A.** soluble

**Q.** Which “soluble on expression in E. coli” value does the source give for “MLKQSGKLRADATPAEVEQAVRDYLRQKAIHMPRGKGELYDKEAKRAEAMQDGQQTNGVLNGKGKKLGQSKTASVPSVKPEPWNGGKRVDRVLVLLIEYPDFPHNNIQPTETDMYYKDYTREHYEDMIFGGDDGYYDGPNGEKLISVKKYYEEQSGGSYSIEGKVAGWYQAKYPAKYYGGNVPAPDGNDANPRALVREALAAAAKDPSINLREFDQEDRYDLDGDGNYREPDGLIDHLMIIHSSVGEEAGGGSLGGAAIWSHRWNLGSVYRIPNTTTDVPYWRGQLAAYDYTIEPADGAAGVFAHEYGHDLGLPDEYDTIYSGLGEPIAYWSIMSSGSWAGRIPGTEPTGFSAWAKQFLQSTMPGSNWLSGTTVEWNEVTQNGVEVVLDEASTKGTNNDAVRINLLKKETVVTIPPSGAYAYFSGSGNNLDHTMSTTIDLTGASKATLAFDTWYAIEKDWDYGAVEVKPHGSNEWTTIQGNITTTNNPYGQNPGNGITGTSNGWVKAEFDLSAYAGQTIDLRFHYITDVAVSEAGWYFDNIQVTADGAAVLADGAEGDSSFVMTGFEKSNGKRYSDHYYLLEWRNHRGVDEGLAHILRGGRLLSYDPGLVVWYVDEGYDNNWTGVHPGEGFLGVVDADQHTLKWSGNTTASTRYQVHDAAFSLQKGASFRVAINGSQLIDNDTSPTPVFDDSRSYDNKGAVDAGRNVPNYGLKIRVIGESADRTAARVLIYR” here?
**A.** not soluble

**Q.** With “MGSDKIHHHHHHMDNLVDVFCDVDDFCAVFMPQWKKQCVTDGTRKRQRSSRMDMSEIMTIIILFHTSHHRDFKNYYTGYLARFFKSDFPHLLSYTRFLELMPTAVVPLCSYFSSIRSLPTGIEFVDSTSVKVCHNLRIPRHKTLSGLARRGKGTMGWFYGFKLHLIVNHKGGIVAAKITPANTHDTKPVSGMVVNAMDKLYADKGYISKALASELLEQGVTLVNNVRKNMKKKVLSLWDRAMLSRRFIIETINDQLKNISQIEHSRHRSVHGFMLNMIGGLIAYQLKESKPQLNITDVDFNAISVMA” as the sequence, how does the “soluble on expression in E. coli” value read?
**A.** not soluble

**Q.** For “GSHMSVRIVDVREITKPISSPIRNAYIDFTKMTTSLVAVVTDVVREGKRVVGYGFNSNGRYGQGGLIRERFASRILEADPKKLLNEAGDNLDPDKVWAAMMINEKPGGHGERSVAVGTIDMAVWDAVAKIAGKPLFRLLAERHGVKANPRVFVYAAGGYYYPGKGLSMLRGEMRGYLDRGYNVVKMKIGGAPIEEDRMRIEAVLEEIGKDAQLAVDANGRFNLETGIAYAKMLRDYPLFWYEEVGDPLDYALQAALAEFYPGPMATGENLFSHQDARNLLRYGGMRPDRDWLQFDCALSYGLCEYQRTLEVLKTHGWSPSRCIPHGGHQMSLNIAAGLGLGGNESYPDLFQPYGGFPDGVRVENGHITMPDLPGIGFEGKSDLYKEMKALAE”, which “soluble on expression in E. coli” value is on record?
**A.** soluble

**Q.** With “MGSDKIHHHHHHMSLSRINIGSFRNITSASLQPCDGLNLIYGQNGSGKTSILEAIYFLGMGRSFRSHLSQRVINNDDDKLTLFAHLIDADRDCKIGLRRHRSGEIEVKIDGEKVKRLSTLAETLPIQVITPESFSLLFEGPKARRQFIDWGAFHSDPHFYQAWVNTRKVLKQRNQLLRNQSSYNQIQFWDKELVRYAEQVTDIRNQYVDSLNVLLKGIIGVFLPRIDIKVSFTRGWDSKTDFAQLLENQYSRDLAAGNTGSGPHKADLRLRVGNLPAQDALSRGQLKLLVCALRIAQGKLLKQQLDKNSIYLVDDLPSELDAQHRQLLLQLLTETGAQIFVTAIDPQAIVDSLSSPPNRMFHVEQGLVTVIE” as the sequence, how does the “soluble on expression in E. coli” value read?
**A.** not soluble

**Q.** With “MGHHHHHHSHMTIEEFAAGPAQSGILVDREVVSLFLHFTVNPKPRVEFIDRPRCCLRGKECSINRFQQVESRWGYSGTSDRIRFSVNKRIFVVGFGLYGSIHGPTDYQVNIQIIHTDSNTVLGQNDTGFSCDGSASTFRVMFKEPVEVLPNVNYTACATLKGPDSHYGTKGLRKVTHESPTTGAKTCFTFCYAAGNNNGTSVEDGQIPEVIFYT” as the sequence, how does the “soluble on expression in E. coli” value read?
**A.** not soluble

**Q.** For “MHYHGSCHCGTIRFDVEGELTGAMSCNCSICRRKGALLWFVPRDHLRLATPDEQIATYTFNRHLIKHRFCPTCGIHTHGEGVDQQGRAMAAINIRCLDDVDLDAVAVHQYDGRAALEHHHHHH”, which “soluble on expression in E. coli” value is on record?
**A.** soluble

**Q.** Which “soluble on expression in E. coli” value does the source give for “MAHHHHHHMTAAADFALPDLVLFLRLYDSANVEDGQLLVQVMNEIHRQLFALAETAADAAVARGGSSTPSMAGTTIGEHDLDAANRGVKGISPAPSASPLPLPAMLYTMSSLGIVEEAVLDVVTSSAVQDGARGRRGLLYSQLRLYSVADLLQLLVALHRFGHQQQPSTKAVTMALRASLYRTSTTASRFHRRARSLKRALAARPQTPSSGEGRADAAAADADTGGVAAVIAADEELSSLAFGLGCPLFLLLEALTATATTVHRRTDVVAFLSDLIAVTAVAELTTAVHESRGRRSPAGCEDLAREAQEFVFAVSHQLLRAAKLTECMELPQILLSDVFAWSTTLSGRGVFVDGGEDNAVPSDRVAYYDHVTADLIKANSAE” here?
**A.** not soluble

**Q.** For “MNITKIDWQKVNGLLPVIIQNISTREVLMLGYMNEEALTKTIKERKVTFFSRTKQRLWTKGEISGNFLNVEEMSLDCDNDTLLILVDPIGATCHTGEYSCFHQFTSPQSENKKQQFANWAWFIKLEQHLKEKKNADPSNSYTATLHAKGTKKIAQKVGEEGVETALAAVAQDKAEVISEATDLVYHLTVLLHNQDLQWYEIIAKLQERHQGIGLHPEGGNK”, which “soluble on expression in E. coli” value is on record?
**A.** soluble
